{"source": "paper PMC7749166", "about": "(Communications Biology, 2020)", "molecules": {"B1": {"name": "C5a: C5a, a large 74-amino acid glycoprotein; endogenous ligand of C5aR (His6-tag at N-terminal end for AFM tips) (protein)", "chain": "TLQKKIEEIAAKYKHSVVKKCCYDGACVNNDETCEQRAARISLGPRCIKAFTECCVVASQLRANISHKDMQLGR", "modifications": "left off: His6, N-terminal, kept"}}, "molecular_target": "T1, C5aR^R175V/Y258V (Homo sapiens, UniProt P21730, R175V/Y258V)", "T1 construct": "Flag (N); His8 (C); made in house; host or cells: HEK-293S cells (BacMam baculovirus)", "T1 sequence (P21730 1-350 R175V/Y258V)": "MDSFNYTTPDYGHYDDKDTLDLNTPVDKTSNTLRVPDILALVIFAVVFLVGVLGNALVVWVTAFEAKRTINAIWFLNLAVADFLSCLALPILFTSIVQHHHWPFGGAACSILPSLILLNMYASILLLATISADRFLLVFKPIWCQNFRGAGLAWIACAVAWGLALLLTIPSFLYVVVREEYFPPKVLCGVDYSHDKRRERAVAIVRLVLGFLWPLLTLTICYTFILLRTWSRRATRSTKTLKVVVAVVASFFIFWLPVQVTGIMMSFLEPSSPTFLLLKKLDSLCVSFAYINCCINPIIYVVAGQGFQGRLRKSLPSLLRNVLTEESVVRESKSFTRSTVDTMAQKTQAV", "assay": "35S-GTPγS binding assay, R175V/Y258V mutant", "type": "biochemical", "settings": "increased concentration of C5a, Fig. S7", "method": "Mutant variants (D282A, D282N, and R175V/Y258V) were generated based on the wtC5aR construct and fully sequenced. Mutant variants were expressed following the same method as for wtC5aR except for some modifications. HEK-293S cells expressing each mutant were pelleted by centrifugation and resuspended in 20 ml buffer containing 20 mM HEPES pH 7.5, 100 mM NaCl, 0.2 μg ml^−1 leupeptin, and 150 μg ml^−1 benzamidine. After 20 min incubation at 25 °C, 20 ml 2X solubilization buffer containing 20 mM HEPES pH 7.5, 100 mM NaCl, 1% dodecyl-maltoside (DDM), 0.2% cholesterol hemisuccinate (CHS), 20% glycerol, 0.2 μg ml^−1 leupeptin, 150 μg ml^−1 benzamidine, and 5 U Salt Active Nuclease (Sigma) was added. Cell membranes were solubilized for 1.5 h at 4 °C. […]\nFor the ^35S-GTPγS binding assays, the membrane of HEK293S GnTI^− cells expressing wtC5aR (~200 µg ml^−1) or mutant variants was incubated with 200 nM purified Gi protein for 30 min on ice in buffer containing 20 mM HEPES pH 7.5, 100 mM NaCl, 5 mM MgCl2, 3 μg ml^−1 BSA, 0.1 μM TCEP, and 5 μM GDP to get the receptor and Gi complex. […] The radiation of bound ^35S-GTPγS was measured on a Beckman LS6500 scintillation counter to determine the binding of ^35S-GTPγS to Gi induced by C5aR activation. […]"}
{"molecule": "B1", "values": [{"measurement": "Gi-protein activation vs C5aR^WT", "result": "strong reduction in the Gi-protein activation"}]}
